We go through one substance from PMC6488296.

Assay [1] deals with GFP-PIF^S-TCR (moxGFP-noF-PIF^S-TCRβ) (Aequorea victoria | A. thaliana | human) (UniProt Q8L5W7). Put plainly: flow cytometry on cells + other: calcium influx (Indo-1), fit of a mathematical model; surface-bound DyLight650-PhyBt on GFP-PIF^S-TCR cells (90 s, 37 C, different PhyBt concentrations and continuous 660 nm intensities) and all calcium data fitted together by maximum likelihood; PhyBt modelled as dimers, off-rates of both steps set equal; parameters are for darkness. On the technique in general: In flow cytometry, cells or beads pass a laser one at a time.

Assay [2] has the same target. Put plainly: flow cytometry on cells + other: calcium influx (Indo-1), fit of a mathematical model; same fit as a6; half-life ln2/(koff+ki) under continuous 660 nm light, at the high end of the range of light intensities used.
For assay [3] the target is unchanged.
Assay [4] has the same target. The source holds these as a separate data set.

Chain of PhyB tetramers (fluorescently labeled streptavidin-based tetramers of PhyB_(1-651)-Avitag-His6) (P14713 1-651): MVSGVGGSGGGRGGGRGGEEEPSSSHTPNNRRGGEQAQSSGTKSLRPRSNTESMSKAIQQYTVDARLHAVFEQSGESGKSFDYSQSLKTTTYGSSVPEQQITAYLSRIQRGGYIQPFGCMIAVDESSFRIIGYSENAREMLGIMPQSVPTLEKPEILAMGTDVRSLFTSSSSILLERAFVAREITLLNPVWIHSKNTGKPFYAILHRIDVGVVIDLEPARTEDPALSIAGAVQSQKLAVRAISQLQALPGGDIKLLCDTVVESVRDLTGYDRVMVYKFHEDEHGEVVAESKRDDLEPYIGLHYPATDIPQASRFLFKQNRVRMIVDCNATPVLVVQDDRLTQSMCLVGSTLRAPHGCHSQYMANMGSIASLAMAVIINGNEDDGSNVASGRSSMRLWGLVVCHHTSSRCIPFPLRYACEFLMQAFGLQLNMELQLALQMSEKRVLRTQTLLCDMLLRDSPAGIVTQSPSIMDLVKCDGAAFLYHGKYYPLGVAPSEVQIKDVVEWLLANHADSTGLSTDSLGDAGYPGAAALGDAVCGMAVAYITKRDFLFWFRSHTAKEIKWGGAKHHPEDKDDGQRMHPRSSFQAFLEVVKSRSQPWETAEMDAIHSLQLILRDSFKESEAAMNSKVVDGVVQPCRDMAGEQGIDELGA
Chain of PhyB tetramers (fluorescently labeled streptavidin-based tetramers of PhyB_(1-651)-Avitag-His6) (P22629 25-183): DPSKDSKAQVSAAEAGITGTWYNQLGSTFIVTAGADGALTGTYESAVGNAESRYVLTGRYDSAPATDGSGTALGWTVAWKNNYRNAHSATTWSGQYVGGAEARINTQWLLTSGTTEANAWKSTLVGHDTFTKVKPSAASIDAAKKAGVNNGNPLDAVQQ

For the substance “PhyB tetramers (fluorescently labeled streptavidin-based tetramers of PhyB_(1-651)-Avitag-His6) (from UniProt P14713 1-651; P22629 25-183) (complex)”, in assay [1], the Kd (in general, a measure of binding affinity in units of concentration) worked out at 22 nM; the Q = qon/qoff, association constant of multivalent binding step (darkness), dimensionless was 11; the half-life of PhyB ON-PIF-TCR complex (darkness), ln(2)/koff is 40 s; the qon, binding rate of receptor cross-linking (second, bivalent step) turned out to be 0.19 s⁻¹. For the same substance, the half-life of the PhyB ON-TCR complex, ln2/(koff+ki), under continuous 660 nm light in assay [2] was determined as 2 s. Also, in assay [3], the calcium influx under continuous 660 nm light of different intensities (dark to 32%) and different PhyBt concentrations; intensity threshold for a calcium response (% 660 nm intensity) was 3. The ongoing calcium response evoked by PhyBt(660) in the dark, then continuous 660 nm light of 2% to 32% intensity; intensity threshold to maintain the response (% 660 nm intensity) in assay [4] turned out to be 3.
